Target: human lactoferrin from milk (human)
Test: SPR; lactoferrin immobilised by amine coupling on Sensor Chip CM3 (around 1000 RU); EndoE variants injected at typically 31-500 nM, 15 µl/min, 25°C, 10 mM Hepes pH 7.5, 150 mM NaCl, 0.005% surfactant P20; BIAcore 2000; 1:1 Langmuir fit, KD from mean values of the rate constants

Row | Substance | Kd [nM]
1 | EndoE(E186Q) (from UniProt Q6U890 1-837) (enzyme) | 44
2 | EndoE(E662Q) (from UniProt Q6U890 1-837) (enzyme) | 3.7
